The record followed here is US20050059087A1 (Amgen, published 2005).

In experiment [1] the target is EGFrVIII antigen (ELISA antigen of Examples 15, 17 and 21; form not stated) (human, UniProt P00533 298-645, limits assumed). The experiment is described as follows: binding of variant antibody to EGFRvIII antigen.
For experiment [2], the target named is T1, Pep-3, NH2-LEEKKGNYVVTDHG-OH (human).
T1 construct: Free peptide used in Biacore and KinExA (MW 1590 Da)
T1 peptide: H-LEEKKGNYVVTDHG-OH
The experiment in a line: Biacore 2000 SPR, steady-state (equilibrium) binding model, pep-3 analyte. An excerpt:
The first step in these examples involved the immobilization of 5,600 resonance units (RU) to 8,000 RU of each mAb tested to one flow cell (Fc) of a CM5 sensor chip using standard EDC/NHS coupling chemistry. […] Three CM5 sensor chips were used in total to immobilize all mutant mAbs with a unique mAb immobilized to each flow cell. […] Biacore 2000 optical biosensors were used for all studies.

B1: mAb 131 variant, light chain V99F (antibody, V domains shown)
VH: QVQLVESGGGVVQSGRSLRLSCAASGFTFRNYGMHWVRQAPGKGLEWVAVIWYDGSDKYYADSVRGRFTISRDNSKNTLYLQMNSLRAEDTAVYYCARDGYDILTGNPRDFDYWGQGTLVTVSS
VL: DTVMTQTPLSSHVTLGQPASISCRSSQSLVHSDGNTYLSWLQQRPGQPPRLLIYRISRRFSGVPDRFSGSGAGTDFTLEISRVEAEDVGVYYCMQSTHFPWTFGQGTKVEIK
notes: also called V99 changed to F
As to B1, the binding result in experiment [1] was “no binding”.

B2: 13.1.2 variant L99N-4.1 (antibody, V domains shown)
VH: QVQLVESGGGVVQPGRSLRLSCAASGFTFSSYGMHWVRQAPGKGLEWVAVIWYDGSNKYYVDSVKGRFTISRDNSKNTLYLQMNSLRAEDTAVYYCARDGWQQLAPFDYWGQGTLVTVSS
VL: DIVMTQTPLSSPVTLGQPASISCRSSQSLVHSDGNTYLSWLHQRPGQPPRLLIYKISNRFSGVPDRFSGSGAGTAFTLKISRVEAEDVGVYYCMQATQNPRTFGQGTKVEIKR
notes: also called Leu99Asn; 99Asn
A word on the Kd: it is the concentration at which binding is half-saturated. Read a high Kd as weaker binding. B2 yielded a Kd in experiment [2] of 1400 nM.
